Reference: US20060235199A1, “Reagent for amplifying amyloid fibrosis of amyloid ss-protein” (priority 2003, published 2006)

Columns and labels:
[1] = Measurement of the secondary structure of each peptide by a CD spectrum; type: physicochemical; settings: peptide 100 μM, 20 mM Tris-HCl buffer (pH 7.4); for secondary structure by CD spectrum: CD at 25° C.; for CD spectral change with time: incubated at ordinary temperatures
Method: The peptide (10-4F), (10-3L), (10-3F), (10-3A), Aβ (14-23) or Aβ (10-35) synthesized in Example 1, which was contained alone in an aqueous solution, was evaluated for its ability to form amyloid fibrils. The secondary structure was examined using a CD spectrum, and the ability to form amyloid fibrils was evaluated with dye thioflavin T (ThT) binding specifically to amyloid fibrils to emit fluorescence, under a transmission electron microscope (TEM).
Solutions of the respective synthesized peptides, 2 mM, in trifluoroethanol (TFE) were prepared and used as stock solutions respectively. Each stock solution was diluted to a final peptide concentration of 100 μM with 20 mM Tris-HCl buffer (pH 7.4), then incubated at ordinary temperatures, and measured for CD spectrum at 25° C. (FIG. 1).

[2] = Evaluation, with ThT, of the ability of the artificial peptide used alone to form amyloid fibrils; settings: peptide 200 μM alone; for time required to finish formation of fibrils at 40° C. compared with ordinary temperatures: incubation at 40° C.; for time having elapsed until the increase in fluorescent intensity was finished: incubation at room temperature
Method: The peptide (10-4F), (10-3L), (10-3F), (10-3A), Aβ (14-23) or Aβ (10-35) synthesized in Example 1, which was contained alone in an aqueous solution, was evaluated for its ability to form amyloid fibrils. The secondary structure was examined using a CD spectrum, and the ability to form amyloid fibrils was evaluated with dye thioflavin T (ThT) binding specifically to amyloid fibrils to emit fluorescence, under a transmission electron microscope (TEM). The ability of each artificial peptide obtained in Example 1 to form amyloid fibrils when used alone was evaluated using ThT. Starting solution used: [peptide]=2 mM solution in TFE Concentration: [peptide]=200 μM in 20 mM Tris-HCl buffer (pH 7.4) Temperature: room temperature or 40° C. Concentrations: [peptide]=5 μM, [ThT]=6 μM (20 mM Tris-HCl buffer (pH 7.4)) Temperature: room temperature Stirring conditions: The whole volume of the reaction mixture was sufficiently stirred with a Pasteur pipette before sampling, and then sufficiently stirred in a cell with a Pasteur pipette. Excitation wavelength: 440 nm, detection wavelength: 482 nm. The formation of fibrils was slow at ordinary temperatures to make it difficult to monitor the change with time, so the ability of each artificial peptide used alone to form fibrils was then evaluated at an elevated temperature of 40° C. estimated to accelerate formation of fibrils.

[3] = biological target: T1, Aβ (10-35) formed into amyloid fibrils (nucleus) (Homo sapiens, UniProt P05067); test: Amplification, with the artificial peptide, of formation of fibrils of Aβ (10-35) formed into fibrils, monitored with ThT; type: biochemical; settings: peptide 200 μM, Aβ (10-35) nucleus 10 μM, room temperature; for increase in ThT fluorescent intensity in the presence of the nucleus: after 1 day
T1 construct: peptide [Aβ (10-35)] consisting of 10 to 35 residues of amyloid β peptide; made in house; host or cells: chemical synthesis (Fmoc solid phase method)
Method: The amplification of formation of fibrils of Aβ (10-35) formed into amyloid fibrils was attempted by using each of the artificial peptides synthesized in Example 1. A small amount of Aβ (10-35) previously formed into fibrils under the condition in (1-2) above was added to a solution of the artificial peptide, and the amplification of formation of fibrils was monitored with ThT.
Starting solution used: [peptide]=2 mM solution in TFE
Concentrations: [peptide]=200 μM, [Aβ (10-35) (nucleus)]=10 μM • (20 mM Tris-HCl buffer (pH 7.4))
(§1) Aβ (10-35) (nucleus) was homogenized by sonication for 1 hour before dilution.
Temperature: room temperature
Concentration: [peptide]=5 μM, [ThT]=6 μM • (20 mM Tris-HCl buffer (pH 7.4))
Stirring conditions: The whole volume of the reaction mixture was sufficiently stirred with a Pasteur pipette before sampling, and then sufficiently stirred in a cell with a Pasteur pipette.
Excitation wavelength: 440 nm, detection wavelength: 482 nm.

[4] = biological target: T1, Aβ (10-35) formed into amyloid fibrils (nucleus); test: Amplification of fibrils of Aβ (10-35) formed into amyloid fibrils, measurement using a plate reader; type: biochemical; settings: high to low; for rank of difference in fluorescence intensity between nucleus added and not added (ability to amplify fibrils): after completion of fluorescent intensity change; for rank of increase in fluorescent intensity among peptides to which the nucleus had been added: with Aβ (10-35) nucleus
Method: A test for the amplification of fibrils of Aβ (10-35) formed into amyloid fibrils by using the artificial peptide of the present invention in Example 2 was attempted using a plate reader.
Starting solution used: [peptide]=5 mM solution in DMSO
Concentrations: [peptide]=20 μM, [Aβ (10-35) (nucleus)]=2.5 μM • (20 mM Tris-HCl buffer (pH 7.4))
as §1
Concentrations: [peptide]=18 μM, [ThT]=25 μM • (20 mM Tris-HCl buffer (pH 7.4))
Stirring conditions: The whole volume of the reaction mixture was stirred 3 times for 2 seconds with a vortex and then (100 μl×2) was stirred with a micropipette in a well before measurement.
Excitation wavelength: 440 nm, detection wavelength: 490 nm.

## Ac-Lys-Gln-Lys-Leu-Leu-Phe-Leu-Leu-Glu-Glu-NH2 (Ac-KQKLLFLLEE-NH2) [10-3F]
[1]
  secondary structure by CD spectrum: spectra unique to β-sheet structure
  CD spectral change with time: increased signals with time
[2]
  time required to finish formation of fibrils at 40° C. compared with ordinary temperatures: hardly changed
  time having elapsed until the increase in fluorescent intensity was finished: about 6 days
[3]
  increase in ThT fluorescent intensity in the presence of the nucleus: no increase in fluorescent intensity
[4]
  rank of difference in fluorescence intensity between nucleus added and not added (ability to amplify fibrils): order of 10-3L, 10-4F, 10-3F, and 10-3A
  rank of increase in fluorescent intensity among peptides to which the nucleus had been added: order of 10-4F, 10-3L, 10-3F, and 10-3A

## Ac-Lys-Gln-Lys-Leu-Leu-Ala-Leu-Leu-Glu-Glu-NH2 (Ac-KQKLLALLEE-NH2) [10-3A]
[1]
  secondary structure by CD spectrum: spectra unique to random coil state
  CD spectral change with time: no spectral change with time
[3]
  increase in ThT fluorescent intensity in the presence of the nucleus: no increase in fluorescent intensity
[4]
  rank of difference in fluorescence intensity between nucleus added and not added (ability to amplify fibrils): order of 10-3L, 10-4F, 10-3F, and 10-3A
  rank of increase in fluorescent intensity among peptides to which the nucleus had been added: order of 10-4F, 10-3L, 10-3F, and 10-3A

## Ac-Lys-Gln-Lys-Leu-Leu-Leu-Phe-Leu-Glu-Glu-NH2 (Ac-KQKLLLFLEE-NH2) [10-4F]
[1]
  secondary structure by CD spectrum: spectra unique to β-sheet structure
  CD spectral change with time: increased signals with time
[2]
  time required to finish formation of fibrils at 40° C. compared with ordinary temperatures: hardly changed
  time having elapsed until the increase in fluorescent intensity was finished: about 6 days
[3]
  increase in ThT fluorescent intensity in the presence of the nucleus: significant increase in fluorescent intensity
[4]
  rank of difference in fluorescence intensity between nucleus added and not added (ability to amplify fibrils): order of 10-3L, 10-4F, 10-3F, and 10-3A
  rank of increase in fluorescent intensity among peptides to which the nucleus had been added: largest increase in fluorescent intensity

## Aβ (14-23): peptide consisting of 14 to 23 residues of amyloid β peptide (HQKLVFFAED; Amyloid-beta protein 42; UniProt P05067 685-694, looked up, fragment)
[1]
  secondary structure by CD spectrum: spectra unique to random coil state
  CD spectral change with time: no spectral change with time
[2]
  time required to finish formation of fibrils at 40° C. compared with ordinary temperatures: significantly shortened

## Aβ (10-35): peptide consisting of 10 to 35 residues of amyloid β peptide, used as the nucleus of amyloid fibril (YEVHHQKLVFFAEDVGSNKGAIIGLM; Amyloid-beta protein 42; UniProt P05067 681-706, looked up, fragment) [reference compound]
[1]
  secondary structure by CD spectrum: spectra unique to β-sheet structure
  CD spectral change with time: increased signals with time

## Ac-Lys-Gln-Lys-Leu-Leu-Leu-Leu-Leu-Glu-Glu-NH2 (Ac-KQKLLLLLEE-NH2) [10-3L]
[1]
  secondary structure by CD spectrum: spectra unique to β-sheet structure
  CD spectral change with time: increased signals with time
[2]
  time required to finish formation of fibrils at 40° C. compared with ordinary temperatures: significantly shortened
  time having elapsed until the increase in fluorescent intensity was finished: 3 days
[3]
  fluorescent intensity with the nucleus relative to that in the absence of the nucleus: twice as high
  increase in ThT fluorescent intensity in the presence of the nucleus: significant increase in fluorescent intensity
[4]
  rank of difference in fluorescence intensity between nucleus added and not added (ability to amplify fibrils): highest
  rank of increase in fluorescent intensity among peptides to which the nucleus had been added: order of 10-4F, 10-3L, 10-3F, and 10-3A
